# Measurements from publication doi:10.1101/2022.01.10.475532.
# Legend:
# [1] = biological target: prefusion-stabilized S protein of SARS-CoV-2 Delta (B.1.617.2) variant (S trimer) (SARS-CoV-2); experiment: BLI
# [2] = biological target: prefusion-stabilized S protein of SARS-CoV-2 G614 variant (S trimer) (SARS-CoV-2); experiment: BLI
# Chain of human ACE2 peptidase domain (PD) (Q9BYF1 18-615): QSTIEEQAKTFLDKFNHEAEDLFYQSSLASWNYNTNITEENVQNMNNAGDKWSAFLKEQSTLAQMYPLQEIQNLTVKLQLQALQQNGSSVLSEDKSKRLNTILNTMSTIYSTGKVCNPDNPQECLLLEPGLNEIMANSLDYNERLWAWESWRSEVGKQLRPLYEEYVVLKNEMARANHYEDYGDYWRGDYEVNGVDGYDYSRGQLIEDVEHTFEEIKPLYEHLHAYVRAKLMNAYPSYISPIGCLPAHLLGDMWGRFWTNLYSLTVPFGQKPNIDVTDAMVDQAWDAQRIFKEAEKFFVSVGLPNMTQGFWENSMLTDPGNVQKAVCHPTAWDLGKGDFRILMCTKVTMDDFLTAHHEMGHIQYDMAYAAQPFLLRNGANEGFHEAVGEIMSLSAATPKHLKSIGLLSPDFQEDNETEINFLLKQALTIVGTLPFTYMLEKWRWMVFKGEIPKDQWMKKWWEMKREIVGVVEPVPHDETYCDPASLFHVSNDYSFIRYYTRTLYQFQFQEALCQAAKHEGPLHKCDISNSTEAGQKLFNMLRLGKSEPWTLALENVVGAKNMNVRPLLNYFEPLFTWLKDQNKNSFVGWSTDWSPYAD
substance,measurement,setting,value
human ACE2 peptidase domain (PD) (from UniProt Q9BYF1 18-615) (domain or fragment),Kd,[1],88 nM
same,Kd,[2],237 nM
